In US20260232827A1 (Zymeworks, published 2026):

T1: Full length human NaPi2b (sodium-dependent phosphate transporter 2B, SLC34A2) (human, UniProt O95436 1-690)
T1 construct: also called huNaPi2b; CL_#13432
T1 sequence: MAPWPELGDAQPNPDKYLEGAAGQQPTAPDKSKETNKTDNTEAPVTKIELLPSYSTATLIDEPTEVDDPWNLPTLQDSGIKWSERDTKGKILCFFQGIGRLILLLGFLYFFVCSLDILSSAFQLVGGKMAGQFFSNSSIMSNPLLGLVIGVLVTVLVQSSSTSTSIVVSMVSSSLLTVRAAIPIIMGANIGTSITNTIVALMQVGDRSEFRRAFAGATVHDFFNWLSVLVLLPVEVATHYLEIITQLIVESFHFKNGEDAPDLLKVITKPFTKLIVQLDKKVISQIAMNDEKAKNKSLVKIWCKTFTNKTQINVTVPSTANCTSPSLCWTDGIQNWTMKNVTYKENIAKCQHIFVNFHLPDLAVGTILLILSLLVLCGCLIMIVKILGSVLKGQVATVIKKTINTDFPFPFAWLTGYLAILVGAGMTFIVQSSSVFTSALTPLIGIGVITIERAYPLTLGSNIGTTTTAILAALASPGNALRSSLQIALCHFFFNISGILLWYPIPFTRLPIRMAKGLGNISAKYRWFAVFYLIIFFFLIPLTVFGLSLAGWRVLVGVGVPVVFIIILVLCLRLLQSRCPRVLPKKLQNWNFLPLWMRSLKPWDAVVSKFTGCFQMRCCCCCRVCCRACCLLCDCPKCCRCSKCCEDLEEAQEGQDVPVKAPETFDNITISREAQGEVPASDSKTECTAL

B1: lifastuzumab (v18993), reference anti-NaPi2b antibody (antibody, human IgG1, kappa)
heavy 1: GEVQLVESGGGLVQPGGSLRLSCAASGFSFSDFAMSWVRQAPGKGLEWVATIGRVAFHTYYPDSMKGRFTISRDNSKNTLYLQMNSLRAEDTAVYYCARHRGFDVGHFDFWGQGTLVTVSSASTKGPSVFPLAPSSKSTSGGTAALGCLVKDYFPEPVTVSWNSGALTSGVHTFPAVLQSSGLYSLSSVVTVPSSSLGTQTYICNVNHKPSNTKVDKKVEPKSCDKTHTCPPCPAPELLGGPSVFLFPPKPKDTLMISRTPEVTCVVVDVSHEDPEVKFNWYVDGVEVHNAKTKPREEQYNSTYRVVSVLTVLHQDWLNGKEYKCKVSNKALPAPIEKTISKAKGQPREPQVYVYPPSRDELTKNQVSLTCLVKGFYPSDIAVEWESNGQPENNYKTTPPVLDSDGSFALVSKLTVDKSRWQQGNVFSCSVMHEALHNHYTQKSLSLSPG
heavy 2: not shown
light: GDIQMTQSPSSLSASVGDRVTITCRSSETLVHSSGNTYLEWYQQKPGKAPKLLIYRVSNRFSGVPSRFSGSGSGTDFTLTISSLQPEDFATYYCFQGSFNPLTFGQGTKVEIKRTVAAPSVFIFPPSDEQLKSGTASVVCLLNNFYPREAKVQWKVDNALQSGNSQESVTEQDSKDSTYSLSSTLTLSKADYEKHKVYACEVTHQGLSSPVTKSFNRGEC
B2: palivizumab (v21995), anti-RSV antibody, negative control (antibody, human IgG1, kappa, V domains shown)
VH: QVTLRESGPALVKPTQTLTLTCTFSGFSLSTSGMSVGWIRQPPGKALEWLADIWWDDKKDYNPSLKSRLTISKDTSKNQVVLKVTNMDPADTATYYCARSMITNWYFDVWGAGTTVTVSS
VL: DIQMTQSPSTLSASVGDRVTITCKSQLSVGYMHWYQQKPGKAPKLLIYDTSKLASGVPSRFSGSGSGTEFTLTISSLQPDDFATYYCFQGSGYPFTFGGGTKLEIKR

Tests used:
[1] = molecular target: T1, Full length human NaPi2b …; assay: flow cytometry, transfected HEK293-6e cells, antibody 200 nM;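 further: cells incubated with antibody for 24 h at 4 °C, background taken as average MFI of unstained cells without primary antibody, at least 1,000 events per well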
[2] = molecular target: T2, Construct 1 (chimeric human NaPi2b, swap in NaPi2c in 239-259) (human); assay: as above
T2 construct: also called CL_#29914

| Binder | Background-Subtracted AF647 Mean Fluorescence Intensity [1] | Background-Subtracted AF647 Mean Fluorescence Intensity [2] |
| --- | --- | --- |
| B1 | 893 MFI | 1510 MFI |
| B2 | 19 MFI | 12 MFI |
